We go through 1 molecule from patent US20180369425A1, “LINKED AND OTHER pH-TRIGGERED COMPOUNDS” (priority 2017, published 2018).

Data set [1] relates to Human mammary epithelial cells (HMEpC). Briefly: Cytotoxicity of ICG-pHLIP. The data set is classed as cell-based. Particulars: 0.125 to 16 μM, 48 and 72 hours. The method, then: Human mammary epithelial cells (HMEpC) were acquired from Cell Applications Inc, and authenticated, and stored according to supplier's instructions. Cells were cultured in mammary epithelial cell growth medium provided by Cell Applications Inc. HMEpC cells were loaded in the wells of 96-well plates (˜6,000 cells per well) and incubated overnight. The increasing amounts of ICG-pHLIP dissolved in cell growth medium were added to cells to have the following final concentration of ICG-pHLIP with cells: 0.125, 0.25, 0.5, 1, 2, 4, 8 and 16 μM. After 48 and 72 hours of incubation, a colorimetric reagent (CellTiter 96 AQueous One Solution Assay, Promega) was added for 1 hour followed by measuring absorbance at 490 nm to assess cell viability. All samples were prepared in triplicate and each experiment was repeated several times.

Another data set deals with red blood cells (RBCs). Nature of the data set: Hemolysis assay with ICG-pHLIP. The data set is classed as cell-based, human. Particulars: 0.075 to 1.2 nmol in 150 μL, 37° C., 2 hours. How it is done:
Single donor human whole blood was purchased from Innovative Research. Red blood cells (RBCs) were collected by centrifugation of whole blood at 2000 rpm for 10 minutes followed by washing three times with Dulbecco's PBS (DPBS) and re-suspended in DPBS at a concentration of 7.5% (v:v). Varying concentrations of ICG-pHLIP (0.075, 0.15, 0.3, 0.6, 1.2 nmol) in DPBS were added to RBCs to give a 5% RBC suspension (total volume of solution with RBC was 150 μL). The resultant mixtures were incubated at 37° C. for 2 hours and then centrifuged at 2000 rpm for 10 min. Hemolysis was assessed by the release of hemoglobin, which was monitored by measuring the absorbance at 450 nm of the supernatant hemoglobin. DPBS was used as negative controls. As positive controls, which result in 100% lysis of RBCs, we used i) water and ii) 10% of Triton X-100. The percentage of hemolysis was calculated as follows: […]
where, ODTest, ODNC, and ODPC are the optical density reading (absorbance) values of the test sample, negative control and positive control, respectively. The assay was performed in triplicate. The amount of RBC lysis was less than 2% in all samples. For the reference, in mice study 2.5 nmol of ICG pHLIP® is injected per mouse (a 20 g mouse has about 1.2 mL of blood), or 2.08 nmol/ml (the dose will be much lower in humans), while in hemolysis assay the maximum tested concentration was 8 nmol/ml.

A short description of the next data set: in vivo. Particulars: female, BALB/cAcNHsd, mouse, iv, 2.5 nmol, 4 hours post injection, constant up to 16 hours, rough estimation, read-out: amount of ICG-pHLIP in tumors. The method, then: The fluorescence signals in organs and tissue were also measured in the tissue/organ homogenates and compared with the signals from the control tissue/organ homogenates (collected from control mice) mixed with known amounts of ICG-pHLIP. About 100 mg of tissue (tumor, liver or kidney) were homogenized with 2.5× (about 250 μL) volumes of DMSO using BioMasher II disposable homogenizers (DiagnoCine LLC). 30 μl of homogenate was placed into 384 well plate and imaged using an Odyssey IR scanner. Tumor, liver or kidney homogenates of control mice, mixed with known concentrations of ICG-pHLIP were used to establish the calibration curve. First, note that the fluorescence signals obtained on the control tumor, liver and kidney mixed with the known amounts of ICG-pHLIP were the same. Second, the course of signal changes in tumor, liver and kidney (data not shown) was in excellent correlation with the course of the kinetics presented on FIGS. 18A-F. It is rather difficult to establish precisely the amount of ICG-pHLIP in the tissue and organ samples; however, rough estimations can be made using the calibration curve. […] At 26 hours, when the blood is cleared and the fluorescence signal in all organs is minimal, the contrast between tumor and surrounding tissue is very significant.

Residues, ends and D or L forms follow the SMILES beside them. *: point of attachment. X1 = CC1(C)C(/C=C/C=C/C=C/C=C2/N(CCCCCC(=O)NCCN3C(=O)CC(*)C3=O)c3ccc4ccccc4c3C2(C)C)=[N+](CCCCS(=O)(=O)[O-])c2ccc3ccccc3c21

Take `CC(C)C[C@H](NC(=O)[C@H](Cc1ccc(O)cc1)NC(=O)[C@H](C)NC(=O)[C@H](CCCNC(=N)N)NC(=O)[C@H](Cc1c[nH]c2ccccc12)NC(=O)[C@@H]1CCCN1C(=O)[C@H](CC(N)=O)NC(=O)[C@H](CCC(N)=O)NC(=O)[C@H](CC(=O)O)NC(=O)[C@H](CC(=O)O)NC(=O)[C@H](CSC1CC(=O)N(CCNC(=O)CCCCCN2/C(=C/C=C/C=C/C=C/C3=[N+](CCCCS(=O)(=O)[O-])c4ccc5ccccc5c4C3(C)C)C(C)(C)c3c2ccc2ccccc32)C1=O)NC(=O)[C@H](C)N)C(=O)N[C@@H](CC(=O)O)C(=O)N[C@@H](CC(C)C)C(=O)N[C@@H](CC(C)C)C(=O)N[C@@H](Cc1ccccc1)C(=O)N1CCC[C@H]1C(=O)N[C@H](C(=O)N[C@@H](CC(=O)O)C(=O)N[C@H](C(=O)N[C@@H](CC(C)C)C(=O)N[C@@H](CC(C)C)C(=O)N[C@@H](CC(C)C)C(=O)N[C@@H](CC(=O)O)C(=O)N[C@@H](CC(C)C)C(=O)N[C@@H](CC(C)C)C(=O)N[C@@H](Cc1c[nH]c2ccccc12)C(=O)N[C@@H](C)C(=O)O)[C@@H](C)O)[C@@H](C)O` (stereo partly drawn) [ICG-pHLIP] (H-AC(X1)DDQNPWRAYLDLLFPTDTLLLDLLWA-OH): in data set [1], the cytotoxic effect entry is given as “did not show any cytotoxic effect”. Further, in the data set on red blood cells (RBCs), the RBC lysis entry is given as “less than 2%”. The tissue uptake in the data set “in vivo” is 10 to 15 %ID/g.
